Changes are numbered by the printed parent chain. Each block holds one binder with its values, some of them ahead of it. Numbered stars: 1 amine (or outer) side, 2 acyl side, 3 side chain; on linkers, the order of the positions; unused ones are H or OH. Square brackets hold non-standard residues; d marks the D form. Side chains are listed from the residue outwards. Ends that are not written are not given here. * marks the point of attachment. X1 = 4‑(16-(1H-tetrazol-5-yl)hexadecanoylsulfamoyl)butanoyl, O=C(CCCCCCCCCCCCCCCc1nn[nH]n1)NS(=O)(=O)CCCC(=O)*; C18 diacid = O=C(O)CCCCCCCCCCCCCCCCC(=O)*; C16 diacid = O=C(O)CCCCCCCCCCCCCCC(=O)*; γGlu = O=C(O)[C@H](CCC(=O)[*:2])N[*:1]; NMeA = CN[C@@H](C)C(=O)O; AEEA = NCCOCCOCC(=O)O
Legend:
human GLP-1 receptor [1] = molecular target: T1, human GLP-1 receptor (human, UniProt P43220 24-463); assay: SPA, displacement of 125I-GLP-1(7-36)NH2 from hGLP-1R membranes, 2.0% HSA
T1 construct: whole, on cells; Used as purified plasma membranes of the transfected hamster cell line, not as intact cells; also called hGLP-1
Method: (§1) 25 ul (micro liter) of test compounds were added to Optiplate. HSA ("high albumin" experiment containing 2% HSA), or buffer ("low albumin" experiment containing 0.005% HSA), was added (50 ul). 5-10 ug protein/sample was added (50 ul) corresponding to 0.1-0.2 mg protein/ml (to be preferably optimised for each membrane preparation). SPA-particles (Wheatgerm agglutinin SPA beads, Perkin Elmer, #RPNQ0001) were added in an amount of 0.5 mg/well (50 ul). […] The plates were sealed with PlateSealer and incubated for 120 minutes at 30° C. while shaking. The plates were centrifuged (1500 rpm, 10 min) and counted in Topcounter.

human GLP-1 receptor [2] = molecular target: T1, human GLP-1 receptor; assay: SPA, displacement of 125I-GLP-1(7-36)NH2 from hGLP-1R membranes, 0.005% HSA
Method: as §1

- IC50 (human GLP-1 receptor [1]): ≤ 1000 nM
- IC50 (human GLP-1 receptor [2]): < 600 nM
Binder: HXEGTFTSDVSSYLEGQAAKEFIAHLVQGRG (Aib8; Lys26 N-epsilon-acylated (side chain as in name); GLP-1(7-37) numbering)

- IC50 (human GLP-1 receptor [1]): ≤ 1000 nM
- IC50 (human GLP-1 receptor [2]): < 600 nM
B1: N^ε26-2,3-bis[[2-[2-[2-[[2-[2-[2-[[(4S)-4-carboxy-4-(13-carboxytridecanoylamino)butanoyl]amino]ethoxy]ethoxy]acetyl]amino]ethoxy]ethoxy]acetyl]amino]propanoyl-[ … (peptide)
peptide: HXEGTFTSDVSSYLEGQAAKEFIAHLVQGRG
modifications: not fully specified; Aib8; Lys26 N-epsilon-acylated (branched side chain as in name); GLP-1(7-37) numbering

- IC50 (human GLP-1 receptor [1]): ≤ 1000 nM
- IC50 (human GLP-1 receptor [2]): < 600 nM
Binder: HAEGTFTSDVSSYLEGQAAK(X1)EFIAHLVQGRG [N^ε26-4-[16-(1H-tetrazol-5-yl)hexadecanoylsulfamoyl]butanoyl-[His^31,Gln^34]-GLP-1-(7-37)-peptide]

- IC50 (human GLP-1 receptor [1]): ≤ 1000 nM
- IC50 (human GLP-1 receptor [2]): < 600 nM
Binder: H[NMeA]EGTFTSDVSSYLEGQAAK([AEEA-AEEA-γGlu-C18 diacid])EFIAHLVQGRG [N^8-methyl, …]

- IC50 (human GLP-1 receptor [1]): ≤ 1000 nM
- IC50 (human GLP-1 receptor [2]): < 600 nM
B2: N^ε36-[2-[2-[2-(17-carboxyheptadecanoylamino)ethoxy]ethoxy]acetyl]-[Aib^8,Glu^30,His^31,Gln^34,Lys^36]-GLP-1-(7-37)-peptidyl-Glu amide (peptide)
peptide: HXEGTFTSDVSSYLEGQAAKEFIEHLVQGKGE
HELM: PEPTIDE1{H.[Aib].E.G.T.F.T.S.D.V.S.S.Y.L.E.G.Q.A.A.K.E.F.I.E.H.L.V.Q.G.K.G.E.[am]}|PEPTIDE2{[O=C(O)CCCCCCCCCCCCCCCCC(=O)[*:2]].[O=C(COCCOCCN[*:1])[*:2]]}$PEPTIDE1,PEPTIDE2,30:R3-2:R2$$$V2.0; N-terminus assumed
SMILES: CC[C@H](C)[C@H](NC(=O)[C@H](Cc1ccccc1)NC(=O)[C@H](CCC(=O)O)NC(=O)[C@H](CCCCN)NC(=O)[C@H](C)NC(=O)[C@H](C)NC(=O)[C@H](CCC(N)=O)NC(=O)CNC(=O)[C@H](CCC(=O)O)NC(=O)[C@H](CC(C)C)NC(=O)[C@H](Cc1ccc(O)cc1)NC(=O)[C@H](CO)NC(=O)[C@H](CO)NC(=O)[C@@H](NC(=O)[C@H](CC(=O)O)NC(=O)[C@H](CO)NC(=O)[C@@H](NC(=O)[C@H](Cc1ccccc1)NC(=O)[C@@H](NC(=O)CNC(=O)[C@H](CCC(=O)O)NC(=O)C(C)(C)NC(=O)[C@@H](N)Cc1c[nH]cn1)[C@@H](C)O)[C@@H](C)O)C(C)C)C(=O)N[C@@H](CCC(=O)O)C(=O)N[C@@H](Cc1c[nH]cn1)C(=O)N[C@@H](CC(C)C)C(=O)N[C@H](C(=O)N[C@@H](CCC(N)=O)C(=O)NCC(=O)N[C@@H](CCCCNC(=O)COCCOCCNC(=O)CCCCCCCCCCCCCCCCC(=O)O)C(=O)NCC(=O)N[C@@H](CCC(=O)O)C(N)=O)C(C)C

- IC50 (human GLP-1 receptor [1]): ≤ 1000 nM
- IC50 (human GLP-1 receptor [2]): < 600 nM
B3: [Aib^8,Glu^30,His^31,Gln^34,Lys^36] GLP-1(7-37)yl-Glu^38-peptide amide (peptide)
peptide: B2 peptide
HELM: PEPTIDE1{H.[Aib].E.G.T.F.T.S.D.V.S.S.Y.L.E.G.Q.A.A.K.E.F.I.E.H.L.V.Q.G.K.G.E.[am]}$$$$V2.0; N-terminus assumed
SMILES: CC[C@H](C)[C@H](NC(=O)[C@H](Cc1ccccc1)NC(=O)[C@H](CCC(=O)O)NC(=O)[C@H](CCCCN)NC(=O)[C@H](C)NC(=O)[C@H](C)NC(=O)[C@H](CCC(N)=O)NC(=O)CNC(=O)[C@H](CCC(=O)O)NC(=O)[C@H](CC(C)C)NC(=O)[C@H](Cc1ccc(O)cc1)NC(=O)[C@H](CO)NC(=O)[C@H](CO)NC(=O)[C@@H](NC(=O)[C@H](CC(=O)O)NC(=O)[C@H](CO)NC(=O)[C@@H](NC(=O)[C@H](Cc1ccccc1)NC(=O)[C@@H](NC(=O)CNC(=O)[C@H](CCC(=O)O)NC(=O)C(C)(C)NC(=O)[C@@H](N)Cc1c[nH]cn1)[C@@H](C)O)[C@@H](C)O)C(C)C)C(=O)N[C@@H](CCC(=O)O)C(=O)N[C@@H](Cc1c[nH]cn1)C(=O)N[C@@H](CC(C)C)C(=O)N[C@H](C(=O)N[C@@H](CCC(N)=O)C(=O)NCC(=O)N[C@@H](CCCCN)C(=O)NCC(=O)N[C@@H](CCC(=O)O)C(N)=O)C(C)C
notes: unacylated analogue; also called (8Aib, 30E, 31H, 34Q, 36K, 38E)

- IC50 (human GLP-1 receptor [1]): ≤ 1000 nM
- IC50 (human GLP-1 receptor [2]): < 600 nM
B4: N^α([Aib^8,His^31,Gln^34]-GLP-1-(7-37)-peptidyl)-Lysine (peptide)
peptide: B2 peptide with E24A, K30R, E32K
modifications: Aib8 (GLP-1(7-37) numbering)
notes: unacylated analogue; also called (8Aib, 31H, 34Q, 38K)

- IC50 (human GLP-1 receptor [1]): ≤ 1000 nM
- IC50 (human GLP-1 receptor [2]): < 600 nM
Binder: HAEGTFTSDVSSYLEGQAAK([AEEA-AEEA-γGlu-C16 diacid])EFIAHLVQGRG
